Experimental data taken from patent publication US20200385730, “Aptamers Against Clostridium Difficile” (Biovector, Inc., published 2020).

Tests used:
[1] = molecular target: T1, CotEC chitinase (rCotEC P381-F712) (Clostridium difficile); test: BLI; conditions: tags: C-terminal His
CotE (rCotE N281-F712) = CotE (rCotE N281-F712) (Clostridium difficile); test: SPR; conditions: tags: C-terminal His
Protocol: (§1) For CotE D2, CotE H2 and CotEC chitinase, aptamers were spotted on a gold surface at a concentration of 5 μM in PBS at a volume of approximately 10 nL in triplicate. Negative aptamers of the same length as the positive aptamers were spotted in the same manner, also in triplicate. Protein was then injected over the chip at a volume of 200 μL, with a flow rate of 50 μL/min in a Horiba (OpenPlex) surface plasmon resonance imaging (SPRi) instrument. Resonance due to binding was obtained by subtracting total resonance on the negative sequences from total resonance on the positive sequences. Disassociation values were computed with the following equation: dx/dt˜−kd*x, wherein dx/dt is the derivative of resonance values as a function of time and x is the resonance value for any given time point. Association values were computed with the following equation: dx/dt˜ka*c*Rmax−(ka*c+kd)*x, where x is the resonance due to binding at specific time points, c is the concentration of injectant, and Rmax is the maximum resonance observed.
(§2) For aptamer CdeC D1 (SEQ ID No 6), the KD was not determined due to protein aggregation.

CotA [2] = molecular target: T2, CotA (Clostridium difficile, UniProt Q186G8 SEQ:1-305); test: BLI; slower association, little dissociation; conditions: tags: His6
T2 sequence: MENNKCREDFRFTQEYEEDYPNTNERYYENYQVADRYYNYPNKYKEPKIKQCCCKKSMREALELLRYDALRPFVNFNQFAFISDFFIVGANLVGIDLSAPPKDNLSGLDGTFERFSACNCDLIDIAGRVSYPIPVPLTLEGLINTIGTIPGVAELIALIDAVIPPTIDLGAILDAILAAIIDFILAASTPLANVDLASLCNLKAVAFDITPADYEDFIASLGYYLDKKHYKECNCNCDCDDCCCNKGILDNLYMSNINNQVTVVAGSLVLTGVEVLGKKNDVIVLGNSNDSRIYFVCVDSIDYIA
Protocol: The refined pools (characterized in FIGS. 21-25) were taken forwards for monoclonal isolation. All aptamers were purified (after elution) and resuspended and stored in water. Before use in selections or binding assays, aptamers were diluted in a final concentration 1× buffer. Individual aptamer clones were isolated and screened by BLI using aptamer concentrations of 0.5 μM, 1 μM, or 2 μM. Again, the target was immobilized onto a Biolayer Interferometry sensor probe and then incubated with each aptamer clone. The results are presented below (FIGS. 26-30).

CdeM = CdeM (Clostridium difficile); test: BLI; conditions: tags: His
CotA [3] = molecular target: T2, CotA; test: SPR; CotA immobilized on hydrogel chip by EDC, aptamer injected; conditions: tags: His6
Protocol: For CotA C1, the protein was immobilized on a hydrogel chip with EDC-mediated conjugation between primary amines on the protein (side chains on residues) and carboxylic acid groups on the surface of the chip. A protein of similar size was immobilized in the same manner as a negative control. […] For CdeC D1, the protein was received as aggregated, insoluble balls of protein. The binding assay was performed by incubating fluorescently labeled aptamers (FAM) with the protein, and then spinning the tubes down in a microcentrifuge to remove unbound. The pellet was resuspended in selection buffer and spun down again. Bound aptamers were eluted by adding 6 M urea, and spinning again, retaining the supernatant. The aptamers were cleaned up with PCR cleanup columns and the fluorescence was read on a Tecan Sapphire II fluorometer. Excitation was at 497 nm, and emission was at 515 nm. The amount of fluorescence measured in the eluant was divided by the total amount of fluorescence of all fractions.
as §2

[4] = molecular target: T1, CotEC chitinase (rCotEC P381-F712); test: SPR; conditions: tags: C-terminal His
Protocol: as §1, §2

B1: Chitinase_D10 (ssDNA)
DNA: CCAGTGTAGACTACTCAATGCCCTATTAGCTGTATCGATCCGTTTAGTCGCTCCTCCGATAGTACTATCCACAGGTCAACC
[1]
  binding result: binds

B2: CotE_D2 (ssDNA)
DNA: CCAGTGTAGACTACTCAATGCTCGACATTTCCGCCCCGACGGCCCTCCTAGTGATGGGGAGAGTACTATCCACAGGTCAACC
CotE (rCotE N281-F712)
  Kd: > 250 nM

B3: CotA_B1 (ssDNA)
DNA: CCAGTGTAGACTACTCAATGCTTAAGTTCTGGGGACACGTGATGAACGCATTTAATGGGGCGTACTATCCACAGGTCAACC
CotA [2]
  binding result: binds

B4: Chitinase_H11 (ssDNA)
DNA: CCAGTGTAGACTACTCAATGCCTTGTAAGAAGAACAATCGCCGCTTCGCCTGAATAGGTTCGTACTATCCACAGGTCAACC
[1]
  binding result: binds

B5: CdeM_E2 (ssDNA)
DNA: CCAGTGTAGACTACTCAATGCCTTCCATTCACCTACCGAGCTAAGCGTTCGACTTAGGTCTGTACTATCCACAGGTCAACC
CdeM
  binding result: binds

B6: CotA_C1 (ssDNA)
DNA: CCAGTGTAGACTACTCAATGCCGTGGACTGGTCGGGTTTGGATTCGGCAGATGAATCACTAGTACTATCCACAGGTCAACC
CotA [3]
  Kd: 6.87 nM

B7: Chitinase_D11 (ssDNA)
DNA: CCAGTGTAGACTACTCAATGCCTGGTAAATCGATGACCGCTGCCTCGCCTGAGTAATCATCGTACTATCCACAGGTCAACC
[4]
  Kd: 254 nM
